Experimental data reported in patent US20040214902A1.
No end group written: not given here. *: point of attachment. 6FAM = O=C1OC2(c3ccc(O)cc3Oc3cc(O)ccc32)c2cc(C(=O)*)ccc21

Molecular target: 46-kDa soluble recombinant GST-fused Bcl-2 protein (Santa Cruz Biotechnology) (human) (UniProt P10415)
Assay: fluorescence polarization saturation binding

Kd: 6.9 nM
Binder: 6FAM-NLWAAQRYGRELRRMSDEFVDSFKK
